Several values for one entry are separate records, joined by “and”; a condition that tells them apart may be missing. Identical values can stand only once.
Tests used:
[1] = target: TaXPD 100C-238C C (crosslinked) (Thermoplasma acidophilum) (UniProt Q9HM14); test: fluorescence anisotropy; conditions: Anisotropy: 20 mM MES pH 6.4, 1 mM DTT, 1 mM MgCl2, 100 nM DNA, +/- 1 mM AMPPNP, temperature not stated; trapping: 20 mM Tris-HCl pH 8.3-8.5, 50 mM NaCl, 4 C …
[2] = target: TaXPD 107C-312C C (crosslinked) (Thermoplasma acidophilum) (UniProt Q9HM14); test: fluorescence anisotropy; conditions: Anisotropy: 20 mM MES pH 6.4, 1 mM DTT, 1 mM MgCl2, 100 nM DNA, +/- 1 mM AMPPNP, temperature not stated; trapping: 20 mM Tris-HCl pH 8.3-8.5, 50 mM NaCl, 4 C …

TACGACAGAGAAGAGACGAGCATTTTTGCTCGGAAGGA [3'-fluorescein hairpin DNA with 5' overhang]
Kd [1]: 600 nM and 500 nM
Kd [2]: 300 nM and 400 nM

Source: publication PMC4824113
